Several values for one entry are separate records, joined by “and”; a condition that tells them apart may be missing. Equal values may be shown once. Numbered stars: 1 amine (or outer) side, 2 acyl side, 3 side chain; on linkers, the order of the positions; unused ones are H or OH. Square brackets hold non-standard residues; d marks the D form. Primed or numbered codes have the meaning given here. Ends that are not written are not given here. * marks the point of attachment. PEG(4) = non-peptide PEG linker joining two peptide parts; MetSta(3S,4S) = CSCC[C@H](N[*:1])[C@@H](O)CC(=O)[*:2]; Biotin = O=C1N[C@H]2[C@H](CS[C@H]2CCCCC(=O)*)N1; Sta = CC(C)C[C@H](N)[C@@H](O)CC(=O)O; PEG4 = NCCOCCOCCOCCOCCC(=O)O; PEG3 = NCCOCCOCCOCCC(=O)O; PEG8′ = not defined here; AEEA = NCCOCCOCC(=O)O
B1: Tyr-Pro-Tyr-Phe-DLys-Leu-Gly-DLys-Gly-Glu-Val-Asn-Leu*Ala-Ala-Glu-DPro-NH2 × 3TFA (peptide)
peptide: YPYF[dK]LG[dK]GEVNLAAE[dP]-NH2
modifications: also: Leu13-Ala14 hydroxyethylene dipeptide isostere (Leu*Ala) in place of the amide bond, 3TFA salt
B2: Tyr-Pro-Tyr-Phe-Ile-Pro-DLys-PEG(4)-Glu-Val-Asn-Leu*Ala-Ala-Glu-DPro-NH2 × 2TFA (peptide)
peptide: YPYFIP[dK][PEG(4)]EVNLAAE[dP]-NH2
modifications: numbers in words are those of the source; also: Leu11-Ala12 as Leu*Ala hydroxyethylene dipeptide isostere, 2TFA salt

Target: BACE1 (Asp2, β-secretase, Memapsin-2) in HEK293 cells stably expressing human APP695 (UniProt P56817 46-501, limits assumed)
Sequence (P56817 46-501 limits assumed): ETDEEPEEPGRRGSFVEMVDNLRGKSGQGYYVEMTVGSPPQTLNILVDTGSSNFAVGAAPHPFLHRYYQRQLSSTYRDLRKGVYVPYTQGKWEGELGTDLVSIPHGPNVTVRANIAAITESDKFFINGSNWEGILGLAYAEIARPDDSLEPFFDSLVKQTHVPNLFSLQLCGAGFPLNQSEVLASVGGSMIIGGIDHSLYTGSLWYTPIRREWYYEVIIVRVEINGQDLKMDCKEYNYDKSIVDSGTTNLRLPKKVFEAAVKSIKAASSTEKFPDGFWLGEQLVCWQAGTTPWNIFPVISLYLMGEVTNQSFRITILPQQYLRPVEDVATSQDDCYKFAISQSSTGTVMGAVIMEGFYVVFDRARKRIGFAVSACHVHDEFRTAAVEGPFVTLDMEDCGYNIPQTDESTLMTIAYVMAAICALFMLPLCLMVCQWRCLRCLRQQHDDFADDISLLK
Experiment: cell-based or functional assay

First: {Biotin-AEEA}-C[PEG3]YPYFIP[dK]G[dK]GEVN[Sta]VAE[dP]-NH2 (also: TFA salt) [Biotin-PEG2-Cys-PEG3-Tyr-Pro-Tyr-Phe-Ile-Pro-DLys-Gly-DLys-Gly-Glu-Val-Asn-Sta-Val-Ala-Glu-DPro-NH2]
Second: H-Y[dK]YFIPLG[dK]GEVN[Sta]VAE[dP]-NH2 (also: TFA salt) [H-Tyr-DLys-Tyr-Phe-Ile-Pro-Leu-Gly-DLys-Gly-Glu-Val-Asn-Sta-Val-Ala-Glu-DPro-NH2]
The “IC 50, cellular Aβ-lowering assay (Aβ40 in supernatant of HEK293 cells expressing human APP695)” value (“IC 50, cellular Aβ-lowering assay” below) of the first is lower: 26 nM for the first, > 40000 nM for the second.

Going from YPYFIP[dK]G[dK]GEVN[MetSta(3S,4S)]VAE[dF]-NH2 (also: TFA salt (3 TFA)) [Tyr-Pro-Tyr-Phe-Ile-Pro-DLys-Gly-DLys-Gly-Glu-Val-Asn-MetSta-Val-Ala-Glu-DPhe-NH2 × 3TFA] to H-[dY]PYFIPLG[dK]GEVN[Sta]VAE[dP]-NH2 (also: TFA salt (2 TFA)) [H-DTyr-Pro-Tyr-Phe-Ile-Pro-Leu-Gly-DLys-Gly-Glu-Val-Asn-Sta-Val-Ala-Glu-DPro-NH2 × 2TFA], the “IC 50, cellular Aβ-lowering assay” value rises from 190 nM to 810 nM (4.3-fold).

First: {Biotin-AEEA}-C[PEG8′]YPYFIP[dK]G[dK]GEVN[Sta]VAE[dP]-NH2 (also: TFA salt) [Biotin-PEG2-Cys-PEG8-Tyr-Pro-Tyr-Phe-Ile-Pro-DLys-Gly-DLys-Gly-Glu-Val-Asn-Sta-Val-Ala-Glu-DPro-NH2]
Second: YPYFIPL[PEG4]EVN[Sta]VAE[dP]-NH2 (also: TFA salt) [Tyr-Pro-Tyr-Phe-Ile-Pro-Leu-PEG(4)-Glu-Val-Asn-Sta-Val-Ala-Glu-DPro-NH2 × TFA]
The “IC 50, cellular Aβ-lowering assay” value of the first is 6.7-fold higher: 18 nM for the first, 2.7 nM for the second.

Compared with YPKFIPLG[dK]GEVN[MetSta(3S,4S)]VAEP-NH2 (also: TFA salt (3 TFA)) [Tyr-Pro-Lys-Phe-Ile-Pro-Leu-Gly-DLys-Gly-Glu-Val-Asn-MetSta-Val-Ala-Glu-Pro-NH2 × 3TFA], H-GGGYPYFIP[dK]G[dK]GEVN[Sta]VAE[dP]-NH2 (also: TFA salt) [H-Gly-Gly-Gly-Tyr-Pro-Tyr-Phe-Ile-Pro-DLys-Gly-DLys-Gly-Glu-Val-Asn-Sta-Val-Ala-Glu-DPro-NH2 × 3TFA] is 120-fold lower in “IC 50, cellular Aβ-lowering assay” value: 760 nM for the first, 6.4 nM for the second.

Compared with H-YPKFIPL[PEG4]EVN[Sta]VAE[dP]-NH2 (numbers in words are those of the source; also: 3TFA salt) [1 H-Tyr-Pro-Lys-Phe-Ile-Pro-Leu-PEG(4)-Glu-Val-Asn-Sta-Val-Ala-Glu-DPro-NH2 × 3TFA], H-YPYF[dK]L[PEG4]EVN[Sta]VAE[dP]-NH2 (also: TFA salt) [H-Tyr-Pro-Tyr-Phe-DLys-Leu-PEG(4)-Glu-Val-Asn-Sta-Val-Ala-Glu-DPro-NH2 × 3TFA] is higher in “IC 50, cellular Aβ-lowering assay” value: 52 nM for the first, > 40000 nM for the second.

First: YPYFIPLGGGEVN[Sta]VAE[dP]-NH2 (also: TFA salt) [Tyr-Pro-Tyr-Phe-Ile-Pro-Leu-Gly-Gly-Gly-Glu-Val-Asn-Sta-Val-Ala-Glu-DPro-NH2 × TFA]
Second: H-[dY]PYFIP[dK]G[dK]GEVN[Sta]VAE[dP]-NH2 (also: TFA salt (3 TFA)) [H-DTyr-Pro-Tyr-Phe-Ile-Pro-DLys-Gly-DLys-Gly-Glu-Val-Asn-Sta-Val-Ala-Glu-DPro-NH2 × 3TFA]
The “IC 50, cellular Aβ-lowering assay” value of the first is 6.7-fold higher: 420 nM for the first, 63 nM for the second.

Compared with H-YPYF[dK]PL[PEG4]EVN[Sta]VAE[dP]-NH2 (numbers in words are those of the source; also: TFA salt (2 TFA)) [H-Tyr-Pro-Tyr-Phe-DLys-Pro-Leu-PEG(4)-Glu-Val-Asn-Sta-Val-Ala-Glu-DPro-NH2 × 2TFA], YPYFIPLG[dK]GEVN[Sta]VAE[dP]-NH2 (also: 2TFA salt) [Tyr-Pro-Tyr-Phe-Ile-Pro-Leu-Gly-DLys-Gly-Glu-Val-Asn-Sta-Val-Ala-Glu-DPro-NH2 × 2TFA] is lower in “IC 50, cellular Aβ-lowering assay” value: > 40000 nM for the first, 94 nM for the second.

Compared with YPYFIP[dK]G[dK]GEVN[MetSta(3S,4S)]VAEP-NH2 (also: TFA salt (3 TFA)) [Tyr-Pro-Tyr-Phe-Ile-Pro-DLys-Gly-DLys-Gly-Glu-Val-Asn-MetSta-Val-Ala-Glu-Pro-NH2 × 3TFA], GARFIPAG[dK]GEVN[Sta]VAE[dP]-NH2 (also: TFA salt (3 TFA)) [Gly-Ala-Arg-Phe-Ile-Pro-Ala-Gly-DLys-Gly-Glu-Val-Asn-Sta-Val-Ala-Glu-DPro-NH2 × 3TFA] is 28-fold higher in “IC 50, cellular Aβ-lowering assay” value: 15 nM for the first, 420 nM for the second.

Going from TPKPAQGG[dK]GEVN[Sta]VAE[dP]-NH2 (also: TFA salt (3 TFA)) [TPKPAQG-GkG-EVN-Sta-VAEp-NH2 × 3TFA] to Ac-[dY]PYFIPLG[dK]GEVN[Sta]VAE[dP]-NH2 (also: TFA salt) [Ac-DTyr-Pro-Tyr-Phe-Ile-Pro-Leu-Gly-DLys-Gly-Glu-Val-Asn-Sta-Val-Ala-Glu-DPro-NH2 × TFA], the “IC 50, cellular Aβ-lowering assay” value falls from > 40000 nM to 110 nM.

First: YPYFIPLG[dK]GEVN[MetSta(3S,4S)]VAEP-NH2 (also: 2TFA salt) [Tyr-Pro-Tyr-Phe-Ile-Pro-Leu-Gly-DLys-Gly-Glu-Val-Asn-MetSta-Val-Ala-Glu-Pro-NH2 × 2TFA]
Second: B1
The “IC 50, cellular Aβ-lowering assay” value of the first is 14-fold higher: 470 nM for the first, 34 nM for the second.

Going from B2 to [dK]PYFIPLG[dK]GEVN[Sta]VAE[dP]-NH2 (also: TFA salt (3 TFA)) [DLys-Pro-Tyr-Phe-Ile-Pro-Leu-Gly-DLys-Gly-Glu-Val-Asn-Sta-Val-Ala-Glu-DPro-NH2 × 3TFA], the “IC 50, cellular Aβ-lowering assay” value rises from 15 nM to 2930 nM (200-fold).

First: YPYFIP[dK][PEG(4)]EVN[MetSta(3S,4S)]VAE[dP]-NH2 (numbers in words are those of the source; also: TFA salt (2 TFA)) [Tyr-Pro-Tyr-Phe-Ile-Pro-DLys-PEG(4)-Glu-Val-Asn-MetSta-Val-Ala-Glu-DPro-NH2 × 2TFA]
Second: H-YP[dK]FIPLG[dK]GEVN[Sta]VAE[dP]-NH2 (also: TFA salt) [H-Tyr-Pro-DLys-Phe-Ile-Pro-Leu-Gly-DLys-Gly-Glu-Val-Asn-Sta-Val-Ala-Glu-DPro-NH2]
The “IC 50, cellular Aβ-lowering assay” value of the first is 29-fold lower: 1010 nM for the first, 29300 nM for the second.

YPYF[dK]PLG[dK]GEVN[Sta]VAE[dP]-NH2 (also: TFA salt (3 TFA)) [Tyr-Pro-Tyr-Phe-DLys-Pro-Leu-Gly-DLys-Gly-Glu-Val-Asn-Sta-Val-Ala-Glu-DPro-NH2 × 3TFA] and YPYFI[dK]LG[dK]GEVN[Sta]VAE[dP]-NH2 (also: TFA salt (3 TFA)) [Tyr-Pro-Tyr-Phe-Ile-DLys-Leu-Gly-DLys-Gly-Glu-Val-Asn-Sta-Val-Ala-Glu-DPro-NH2 × 3TFA] cannot be ordered by “IC 50, cellular Aβ-lowering assay” value: > 40000 nM for the first, > 40000 nM for the second.

Compared with H-YPYFIP[dK][PEG4]EVN[Sta]VAE[dP]-NH2 (numbers in words are those of the source; also: TFA salt (2 TFA)) [H-Tyr-Pro-Tyr-Phe-Ile-Pro-DLys-PEG(4)-Glu-Val-Asn-Sta-Val-Ala-Glu-DPro-NH2 × 2TFA], YPKFISAG[dK]GEVN[Sta]VAE[dP]-NH2 (also: 3TFA salt) [YPKFISA-GkG-EVN-Sta-VAEp-NH2 × 3TFA] is 17-fold higher in “IC 50, cellular Aβ-lowering assay” value: 45 nM for the first, 750 nM for the second.

In the case of YPYFKPAG[dK]GEVN[Sta]VAE[dP]-NH2 (also: 3TFA salt) [Tyr-Pro-Tyr-Phe-Lys-Pro-Ala-Gly-DLys-Gly-Glu-Val-Asn-Sta-Val-Ala-Glu-DPro-NH2 × 3TFA], the “IC 50, cellular Aβ-lowering assay” value is reported as 71 nM and 46 nM.
